Source: US20160264650A1 (Regeneron, published 2016)
Where two headings read alike, the source gives them in different places.

B1: H1H3330P (antibody, V domains shown)
VH: QVQLVESGGGVVQPGGSLRLSCAASGFTFSSYAMHWVRQAPGKGLEWVAIIWFDGSNEDYADSVKGRFTISRDNSKNMVYLQINSLRAEDTAVYYCARSANWNYEGGPLFDYWGQGTLVTVSS
VL: DIQMTQSPSSLSASVGDRVTITCRASQTISTFLNWYQQKPGKGPELLIYTASSLQSGVPSRFSGSGSGTDFALTISSLQPEDFATYYCQQNYNDPPTFGQGTRLEIKR
B2: H2M3124N (antibody, V domains shown)
VH: EIQLIESGGDMVQPGGSLRLSCAASGISLNSYEMNWVRQTPGMGLEWISHISSSGTSIYYANSVKGRFTIFRDSAKNSLLLQMNSLRAEDTAIYYCARERYDHSGYYYLGMDVWGLGTTVTVSS
VL: DIQMTQSPSTLSASLGDRVTITCRASQNIDNWMAWYQQKVGKAPKLLIYRASTLETGVPSRFGGSGFGTEFTLTISSLQPGDFATYYCQEYNSYFRTFGQGTKVEIK
notes: also called H2aM3124N; H1M3124N
B3: H1H3347P (antibody, V domains shown)
VH: EVQLVESGGGLVQPGGSLRLSCVASGFTFTSYAMSWVRQAPGRGLQWVSAIGGSGDSIYYADSVKGRFTISRDNSKNTLYLQMDSLRAEDTAVYYCARGWELLNYWGQGTLVTVSS
VL: DIQMTQSPSSLSASVGDRVTITCRASQDIGNFLAWFQQKPGKAPKSLIYAASSLKSGVPSKISGSGSGTDFTLTINSLQPEDFATYYCQQYNIYPPTFGPGTKVDIKR
B4: H2M3121N (antibody, V domains shown)
VH: EVQLVESGGDLVQPGGSLRLSCAASGVTFRTYEMNWVRQAPGKGLEWISHISSSGDIIYYTKSVKGRFTISRDNAKNSLFLQMTSLRAEDTAVYYCARERYSQYGYYYFGMDVWGQGTTVTVSS
VL: DIQMTQSPSTLSASIGDRVTITCRASQNTDKWMAWYQQKAGKAPKLLIYKASILESGVPSRFSGSGSGTEFTLTISSLQPDDFATYYCQEYNTYFRAFGQGTKVETR
notes: also called H2aM3121N; H1M3121N
B5: H1H3325P (antibody, V domains shown)
VH: EVQLVESGGGLVQPGGSLRLSCAASGFTFNSFVMSWVRQAPGKGLEWVSAISGYGGSTYYADSMKGRFTVSRDNSKNTLYLQMNSLRAEDTAVYYCAKDHKDFYASGSYFNRDYYYGMDVWGQGTTVTVSS
VL: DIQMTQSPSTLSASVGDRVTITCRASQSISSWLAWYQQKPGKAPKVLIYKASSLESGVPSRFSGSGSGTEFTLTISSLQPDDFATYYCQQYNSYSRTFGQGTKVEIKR
B6: H2M3123N (antibody, V domains shown)
VH: DVQLVESGGDFVQPGGSLRLSCAASGVAFNDYEMNWIRQAPGKRLEWISHIDSSGTIIYYADSVKGRFTISRDSAKNSLFLQMDSLRAEDTAVYYCARERYSHYGYYYFGMDVWGQGTTVTVSS
VL: DIQMTQSPSTLSASVGDRVTITCRASQNIDNWLAWYQQKTGKAPNLLIYKASTLESGVPSRFSGSGSGTEFTLTIISLQPDDFATYYCQEYNTYSRTFGQGTKVEIK
notes: also called H2aM3123N; H1M3123N

Key:
CBD-toxin B-Fc [1] = biological target: T1, CBD-toxin B-Fc (Clostridium difficile, UniProt P18177 1851-2366); test: SPR Biacore, CBD-B-Fc captured, 500 nM mAb flowed
T1 construct: also called CBD-B; C-term Toxin B

[2] = biological target: T2, Clostridium difficile toxin A, soluble full-length (TechLab) (Clostridium difficile, UniProt P16154 1-2710); test: SPR Biacore T200, 37C, mAb capture
T2 construct: also called tcdA

[3] = biological target: T2, Clostridium difficile toxin A, soluble …; test: cell-based or functional assay
CBD-toxin A-Fc [4] = biological target: T3, CBD-toxin A-Fc (Clostridium difficile, UniProt P16154 1848-2710); test: SPR Biacore, mAb captured, 100 nM CBD-A-Fc flowed
T3 construct: also called CBD-A; C-term Toxin A

CBD-toxin A-Fc [5] = biological target: T3, CBD-toxin A-Fc; test: SPR Biacore, CBD-A-Fc captured, 500 nM mAb flowed
[6] = biological target: T2, Clostridium difficile toxin A, soluble …; test: cell-based or functional assay; remark: listed apart in the source
CBD-toxin B-Fc [7] = biological target: T1, CBD-toxin B-Fc; test: SPR Biacore, mAb capture and CBD-Fc capture formats
CBD-toxin A-Fc [8] = biological target: T3, CBD-toxin A-Fc; test: as above
[9] = biological target: T4, Clostridium difficile toxin B, soluble full-length (TechLab) (Clostridium difficile, UniProt P18177 2-2366); test: SPR Biacore T200, 37C, mAb capture
T4 construct: also called tcdB

[10] = biological target: T2, Clostridium difficile toxin A, soluble …; test: SPR Biacore T200, 37C, mAb capture; remark: listed apart in the source
[11] = biological target: T5, C-term receptor Binding Domain (CBD) of toxin A (Clostridium difficile, UniProt P16154 1848-2710); test: SEC (Superose 6) of CBD and mAb mixture
T5 construct: also called CBD-A; recombinant CBD of toxin A

[12] = biological target: T6, C-term receptor Binding Domain (CBD) of toxin B (Clostridium difficile, UniProt P18177 1851-2366); test: SEC (Superose 6) of CBD and mAb mixture
T6 construct: also called CBD-B

[13] = biological target: T4, Clostridium difficile toxin B, soluble …; test: SPR Biacore T200, 37C, mAb capture; remark: listed apart in the source
[14] = biological target: T4, Clostridium difficile toxin B, soluble …; test: cell-based or functional assay

Binder	binding (RU) (CBD-toxin B-Fc [1])	Kd [2] [nM]	T½ [2] [h]	koff [2] [s⁻¹]	kon [2] [M⁻¹ s⁻¹]	binding (RU) (CBD-toxin A-Fc [4])	binding (RU) (CBD-toxin A-Fc [5])	binding result (CBD-toxin B-Fc [7])	binding result (CBD-toxin A-Fc [8])	Kd [9] [nM]	T½ [9] [h]	koff [9] [s⁻¹]	kon [9] [M⁻¹ s⁻¹]	Kd [10] [nM]	T½ [10] [h]	koff [10] [s⁻¹]	kon [10] [M⁻¹ s⁻¹]	IC50, Vero cell viability (neutralization), Trial 1, 32 pM Toxin A [3] [pM]	IC50, Vero cell viability (neutralization), Trial 2, 32 pM Toxin A [3] [pM]	binding result [11]	other results
B1	-4	0.547	1.42	0.000137	250000	441	515	–	–	–	–	–	–	–	–	–	–	–	–	–	IC50, Vero cell viability (neutralization), Trial 3, 32 pM Toxin A [3]: 7 pM; IC50, Vero cell viability (neutralization), Trial 5, 25 pM Toxin A [3]: 7 pM; neutralization potency relative to control I [6]: ~20 fold
B2	–	–	–	–	–	0	29	no binding	no binding	≤ 0.00302	192	≤ 1e-06	331000	0.174	0.967	0.000198	1.14e+06	41	21	no binding (tested: CBD at ~500 nM, CBD:Mab 1:5 and 1:20)	–
B3	–	–	–	–	–	42	-13	no binding	–	–	–	–	–	–	–	–	–	–	–	–	binding result [12]: no binding (tested: CBD at ~500 nM, CBD:Mab 1:5 and 1:20); Kd [13]: 2.4 nM; T½ [13]: 0.233 h; koff [13]: 0.000813 s⁻¹; kon [13]: 339000 M⁻¹ s⁻¹; IC50, Vero cell viability (neutralization), Trial 1, 0.1 pM Toxin B [14]: 130 pM; IC50, Vero cell viability (neutralization), Trial 2, 0.1 pM Toxin B [14]: 90 pM; IC50, Vero cell viability (neutralization), Trial 3, 0.03 pM Toxin B [14]: 25 pM
B4	–	–	–	–	–	0	23	no binding	no binding	1.24	2.53	7.58e-05	61100	0.172	1.15	0.000166	969000	65	35	no binding (tested: CBD at ~500 nM, CBD:Mab 1:5 and 1:20)	–
B5	-8	0.105	3.48	5.51e-05	527000	17	3	–	no binding	–	–	–	–	–	–	–	–	–	–	no binding (tested: CBD at ~500 nM, CBD:Mab 1:5 and 1:20)	IC50, Vero cell viability (neutralization), Trial 4, 32 pM Toxin A [3]: 33 pM
B6	–	–	–	–	–	1	23	no binding	no binding	1.65	2.93	6.54e-05	39700	0.481	0.317	0.000593	1.23e+06	65	24	no binding (tested: CBD at ~500 nM, CBD:Mab 1:5 and 1:20)	–
